Measured values from article PMC11342335 (2024).

Target: human sortilin (R&D Systems, 3154-ST) (human, UniProt Q99523 78-755)
Assay: SPR

human sortilin (R&D Systems, 3154-ST), sequence (Q99523 78-755): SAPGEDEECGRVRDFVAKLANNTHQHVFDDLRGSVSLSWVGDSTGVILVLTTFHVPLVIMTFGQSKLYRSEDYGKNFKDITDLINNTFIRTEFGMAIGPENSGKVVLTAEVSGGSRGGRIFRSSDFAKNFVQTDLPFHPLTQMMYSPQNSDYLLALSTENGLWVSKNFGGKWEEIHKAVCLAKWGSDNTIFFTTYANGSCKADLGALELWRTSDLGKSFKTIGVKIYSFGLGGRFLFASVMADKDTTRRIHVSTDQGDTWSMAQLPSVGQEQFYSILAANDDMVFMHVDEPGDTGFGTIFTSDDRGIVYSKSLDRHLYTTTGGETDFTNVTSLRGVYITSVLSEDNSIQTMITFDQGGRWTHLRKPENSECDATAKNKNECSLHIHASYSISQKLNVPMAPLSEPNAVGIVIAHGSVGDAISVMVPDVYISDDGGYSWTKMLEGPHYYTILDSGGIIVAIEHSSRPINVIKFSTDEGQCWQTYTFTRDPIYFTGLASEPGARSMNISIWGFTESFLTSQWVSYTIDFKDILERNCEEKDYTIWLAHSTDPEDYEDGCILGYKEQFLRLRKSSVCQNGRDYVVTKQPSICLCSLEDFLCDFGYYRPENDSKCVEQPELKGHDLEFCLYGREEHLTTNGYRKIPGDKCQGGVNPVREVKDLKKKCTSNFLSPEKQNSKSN

- Kd: 0.026 µM
Binder: LRREAPRWDAPLRDPGLRQLL [ABD-PGRNC21* (His6-ABD035-PGRNC21*)]
